From patent US20210388087A1 (Chugai, published 2021) come the findings set out here.

To fix the notation:
B1: CE115HA000 N31G (antibody, human IgG1, kappa, L234A L235A, N297A, name in Kabat numbering)
heavy: QVQLVESGGGVVQPGRSLRLSCAASGFTFSGAWMHWVRQAPGKGLEWVAQIKAKSNNYATYYAESVKGRFTISRDDSKNSLYLQMNSLKTEDTAVYYCRYVHYGAYYGVDAWGQGTTVTVSSASTKGPSVFPLAPSSKSTSGGTAALGCLVKDYFPEPVTVSWNSGALTSGVHTFPAVLQSSGLYSLSSVVTVPSSSLGTQTYICNVNHKPSNTKVDKKVEPKSCDKTHTCPPCPAPEAAGGPSVFLFPPKPKDTLMISRTPEVTCVVVDVSHEDPEVKFNWYVDGVEVHNAKTKPREEQYASTYRVVSVLTVLHQDWLNGKEYKCKVSNKALPAPIEKTISKAKGQPREPQVYTLPPSRCELTKNQVSLSCAVKGFYPSDIAVEWESNGQPENNYKTTPPVLDSDGSFFLVSKLTVDKSRWQQGNVFSCSVMHEALHNHYTQKSLSLSPDYKDDDDK
chain: EPKSSDKTHTCPPCPAPELLGGPSVFLFPPKPKDTLMISRTPEVTCVVVDVSHEDPEVKFNWYVDGVEVHNAKTKPREEQYNSTYRVVSVLTVLHQDWLNGKEYKCKVSNKALPAPIEKTISKAKGQPREPQVCTLPPSRDELTKNQVSLWCLVKGFYPSDIAVEWESNGQPENNYKTTPPVLDSDGSFFLYSKLTVDKSRWQQGNVFSCSVMHEALHNRYTQKSLSLSP
light: DIVMTQSPLSLPVTPGEPASISCRSSQSLVHSNRNTYLHWYQQKPGQAPRLLIYKVSNRFSGVPDRFSGSGSGTDFTLKISRVEAEDVGVYYCGQGTQVPYTFGQGTKLEIKRTVAAPSVFIFPPSDEQLKSGTASVVCLLNNFYPREAKVQWKVDNALQSGNSQESVTEQDSKDSTYSLSSTLTLSKADYEKHKVYACEVTHQGLSSPVTKSFNRGEC
notes: one-arm antibody
B2: CE115HA000 N31H (antibody, human IgG1, kappa, L234A L235A, N297A, name in Kabat numbering)
heavy: QVQLVESGGGVVQPGRSLRLSCAASGFTFSHAWMHWVRQAPGKGLEWVAQIKAKSNNYATYYAESVKGRFTISRDDSKNSLYLQMNSLKTEDTAVYYCRYVHYGAYYGVDAWGQGTTVTVSSASTKGPSVFPLAPSSKSTSGGTAALGCLVKDYFPEPVTVSWNSGALTSGVHTFPAVLQSSGLYSLSSVVTVPSSSLGTQTYICNVNHKPSNTKVDKKVEPKSCDKTHTCPPCPAPEAAGGPSVFLFPPKPKDTLMISRTPEVTCVVVDVSHEDPEVKFNWYVDGVEVHNAKTKPREEQYASTYRVVSVLTVLHQDWLNGKEYKCKVSNKALPAPIEKTISKAKGQPREPQVYTLPPSRCELTKNQVSLSCAVKGFYPSDIAVEWESNGQPENNYKTTPPVLDSDGSFFLVSKLTVDKSRWQQGNVFSCSVMHEALHNHYTQKSLSLSPDYKDDDDK
chain: EPKSSDKTHTCPPCPAPELLGGPSVFLFPPKPKDTLMISRTPEVTCVVVDVSHEDPEVKFNWYVDGVEVHNAKTKPREEQYNSTYRVVSVLTVLHQDWLNGKEYKCKVSNKALPAPIEKTISKAKGQPREPQVCTLPPSRDELTKNQVSLWCLVKGFYPSDIAVEWESNGQPENNYKTTPPVLDSDGSFFLYSKLTVDKSRWQQGNVFSCSVMHEALHNRYTQKSLSLSP
light: DIVMTQSPLSLPVTPGEPASISCRSSQSLVHSNRNTYLHWYQQKPGQAPRLLIYKVSNRFSGVPDRFSGSGSGTDFTLKISRVEAEDVGVYYCGQGTQVPYTFGQGTKLEIKRTVAAPSVFIFPPSDEQLKSGTASVVCLLNNFYPREAKVQWKVDNALQSGNSQESVTEQDSKDSTYSLSSTLTLSKADYEKHKVYACEVTHQGLSSPVTKSFNRGEC
notes: one-arm antibody
B3: CE115HA000 N31I (antibody, human IgG1, kappa, L234A L235A, N297A, name in Kabat numbering)
heavy: QVQLVESGGGVVQPGRSLRLSCAASGFTFSIAWMHWVRQAPGKGLEWVAQIKAKSNNYATYYAESVKGRFTISRDDSKNSLYLQMNSLKTEDTAVYYCRYVHYGAYYGVDAWGQGTTVTVSSASTKGPSVFPLAPSSKSTSGGTAALGCLVKDYFPEPVTVSWNSGALTSGVHTFPAVLQSSGLYSLSSVVTVPSSSLGTQTYICNVNHKPSNTKVDKKVEPKSCDKTHTCPPCPAPEAAGGPSVFLFPPKPKDTLMISRTPEVTCVVVDVSHEDPEVKFNWYVDGVEVHNAKTKPREEQYASTYRVVSVLTVLHQDWLNGKEYKCKVSNKALPAPIEKTISKAKGQPREPQVYTLPPSRCELTKNQVSLSCAVKGFYPSDIAVEWESNGQPENNYKTTPPVLDSDGSFFLVSKLTVDKSRWQQGNVFSCSVMHEALHNHYTQKSLSLSPDYKDDDDK
chain: EPKSSDKTHTCPPCPAPELLGGPSVFLFPPKPKDTLMISRTPEVTCVVVDVSHEDPEVKFNWYVDGVEVHNAKTKPREEQYNSTYRVVSVLTVLHQDWLNGKEYKCKVSNKALPAPIEKTISKAKGQPREPQVCTLPPSRDELTKNQVSLWCLVKGFYPSDIAVEWESNGQPENNYKTTPPVLDSDGSFFLYSKLTVDKSRWQQGNVFSCSVMHEALHNRYTQKSLSLSP
light: DIVMTQSPLSLPVTPGEPASISCRSSQSLVHSNRNTYLHWYQQKPGQAPRLLIYKVSNRFSGVPDRFSGSGSGTDFTLKISRVEAEDVGVYYCGQGTQVPYTFGQGTKLEIKRTVAAPSVFIFPPSDEQLKSGTASVVCLLNNFYPREAKVQWKVDNALQSGNSQESVTEQDSKDSTYSLSSTLTLSKADYEKHKVYACEVTHQGLSSPVTKSFNRGEC
notes: one-arm antibody
B4: CE115HA000 N31R (antibody, human IgG1, kappa, L234A L235A, N297A, name in Kabat numbering)
heavy: QVQLVESGGGVVQPGRSLRLSCAASGFTFSRAWMHWVRQAPGKGLEWVAQIKAKSNNYATYYAESVKGRFTISRDDSKNSLYLQMNSLKTEDTAVYYCRYVHYGAYYGVDAWGQGTTVTVSSASTKGPSVFPLAPSSKSTSGGTAALGCLVKDYFPEPVTVSWNSGALTSGVHTFPAVLQSSGLYSLSSVVTVPSSSLGTQTYICNVNHKPSNTKVDKKVEPKSCDKTHTCPPCPAPEAAGGPSVFLFPPKPKDTLMISRTPEVTCVVVDVSHEDPEVKFNWYVDGVEVHNAKTKPREEQYASTYRVVSVLTVLHQDWLNGKEYKCKVSNKALPAPIEKTISKAKGQPREPQVYTLPPSRCELTKNQVSLSCAVKGFYPSDIAVEWESNGQPENNYKTTPPVLDSDGSFFLVSKLTVDKSRWQQGNVFSCSVMHEALHNHYTQKSLSLSPDYKDDDDK
chain: EPKSSDKTHTCPPCPAPELLGGPSVFLFPPKPKDTLMISRTPEVTCVVVDVSHEDPEVKFNWYVDGVEVHNAKTKPREEQYNSTYRVVSVLTVLHQDWLNGKEYKCKVSNKALPAPIEKTISKAKGQPREPQVCTLPPSRDELTKNQVSLWCLVKGFYPSDIAVEWESNGQPENNYKTTPPVLDSDGSFFLYSKLTVDKSRWQQGNVFSCSVMHEALHNRYTQKSLSLSP
light: DIVMTQSPLSLPVTPGEPASISCRSSQSLVHSNRNTYLHWYQQKPGQAPRLLIYKVSNRFSGVPDRFSGSGSGTDFTLKISRVEAEDVGVYYCGQGTQVPYTFGQGTKLEIKRTVAAPSVFIFPPSDEQLKSGTASVVCLLNNFYPREAKVQWKVDNALQSGNSQESVTEQDSKDSTYSLSSTLTLSKADYEKHKVYACEVTHQGLSSPVTKSFNRGEC
notes: one-arm antibody
B5: CE115HA000 N31Q (antibody, human IgG1, kappa, L234A L235A, N297A, name in Kabat numbering)
heavy: QVQLVESGGGVVQPGRSLRLSCAASGFTFSQAWMHWVRQAPGKGLEWVAQIKAKSNNYATYYAESVKGRFTISRDDSKNSLYLQMNSLKTEDTAVYYCRYVHYGAYYGVDAWGQGTTVTVSSASTKGPSVFPLAPSSKSTSGGTAALGCLVKDYFPEPVTVSWNSGALTSGVHTFPAVLQSSGLYSLSSVVTVPSSSLGTQTYICNVNHKPSNTKVDKKVEPKSCDKTHTCPPCPAPEAAGGPSVFLFPPKPKDTLMISRTPEVTCVVVDVSHEDPEVKFNWYVDGVEVHNAKTKPREEQYASTYRVVSVLTVLHQDWLNGKEYKCKVSNKALPAPIEKTISKAKGQPREPQVYTLPPSRCELTKNQVSLSCAVKGFYPSDIAVEWESNGQPENNYKTTPPVLDSDGSFFLVSKLTVDKSRWQQGNVFSCSVMHEALHNHYTQKSLSLSPDYKDDDDK
chain: EPKSSDKTHTCPPCPAPELLGGPSVFLFPPKPKDTLMISRTPEVTCVVVDVSHEDPEVKFNWYVDGVEVHNAKTKPREEQYNSTYRVVSVLTVLHQDWLNGKEYKCKVSNKALPAPIEKTISKAKGQPREPQVCTLPPSRDELTKNQVSLWCLVKGFYPSDIAVEWESNGQPENNYKTTPPVLDSDGSFFLYSKLTVDKSRWQQGNVFSCSVMHEALHNRYTQKSLSLSP
light: DIVMTQSPLSLPVTPGEPASISCRSSQSLVHSNRNTYLHWYQQKPGQAPRLLIYKVSNRFSGVPDRFSGSGSGTDFTLKISRVEAEDVGVYYCGQGTQVPYTFGQGTKLEIKRTVAAPSVFIFPPSDEQLKSGTASVVCLLNNFYPREAKVQWKVDNALQSGNSQESVTEQDSKDSTYSLSSTLTLSKADYEKHKVYACEVTHQGLSSPVTKSFNRGEC
notes: one-arm antibody
B6: CE115HA000 N31K (antibody, human IgG1, kappa, L234A L235A, N297A, name in Kabat numbering)
heavy: QVQLVESGGGVVQPGRSLRLSCAASGFTFSKAWMHWVRQAPGKGLEWVAQIKAKSNNYATYYAESVKGRFTISRDDSKNSLYLQMNSLKTEDTAVYYCRYVHYGAYYGVDAWGQGTTVTVSSASTKGPSVFPLAPSSKSTSGGTAALGCLVKDYFPEPVTVSWNSGALTSGVHTFPAVLQSSGLYSLSSVVTVPSSSLGTQTYICNVNHKPSNTKVDKKVEPKSCDKTHTCPPCPAPEAAGGPSVFLFPPKPKDTLMISRTPEVTCVVVDVSHEDPEVKFNWYVDGVEVHNAKTKPREEQYASTYRVVSVLTVLHQDWLNGKEYKCKVSNKALPAPIEKTISKAKGQPREPQVYTLPPSRCELTKNQVSLSCAVKGFYPSDIAVEWESNGQPENNYKTTPPVLDSDGSFFLVSKLTVDKSRWQQGNVFSCSVMHEALHNHYTQKSLSLSPDYKDDDDK
chain: EPKSSDKTHTCPPCPAPELLGGPSVFLFPPKPKDTLMISRTPEVTCVVVDVSHEDPEVKFNWYVDGVEVHNAKTKPREEQYNSTYRVVSVLTVLHQDWLNGKEYKCKVSNKALPAPIEKTISKAKGQPREPQVCTLPPSRDELTKNQVSLWCLVKGFYPSDIAVEWESNGQPENNYKTTPPVLDSDGSFFLYSKLTVDKSRWQQGNVFSCSVMHEALHNRYTQKSLSLSP
light: DIVMTQSPLSLPVTPGEPASISCRSSQSLVHSNRNTYLHWYQQKPGQAPRLLIYKVSNRFSGVPDRFSGSGSGTDFTLKISRVEAEDVGVYYCGQGTQVPYTFGQGTKLEIKRTVAAPSVFIFPPSDEQLKSGTASVVCLLNNFYPREAKVQWKVDNALQSGNSQESVTEQDSKDSTYSLSSTLTLSKADYEKHKVYACEVTHQGLSSPVTKSFNRGEC
notes: one-arm antibody

This assay deals with T1, CD3 epsilon homodimer protein (UniProt P07766 23-126).
T1 construct: also called CD3 (CD3 epsilon)
T1 sequence (P07766 23-126): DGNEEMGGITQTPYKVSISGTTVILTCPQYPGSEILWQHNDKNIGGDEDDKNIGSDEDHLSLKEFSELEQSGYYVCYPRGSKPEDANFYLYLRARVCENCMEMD
Put plainly: SPR, CD3 epsilon homodimer on chip, one-arm antibody as analyte.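 Further: surface plasmon resonance at 25 °C with CD3 epsilon homodimer amine-coupled to a CM4 sensor chip, antibody injected as analyte, HBS-EP+ as running buffer.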
Take B1: the “KD ratio (KD of CE115HA000/KD of altered form)” value (from here on “KD ratio”) was determined as 1.37.
For the molecule B2, the “KD ratio” value was found to be 0.96.
To B3 belongs 0.62; to B4, 0.98; to B5, 0.94.
For B6, the “KD ratio” value is 0.97.
